Experimental findings from publication PMC5117957 (Journal of immunology (Baltimore, Md. : 1950), 2016) are described below.

This experiment concerns the target gp120 (derived from isolate YU2) (HIV-1 isolate YU2, UniProt P35961). Description: ELISA. Background: An ELISA detects its analyte on a solid surface through an enzyme-linked reagent.

B1: CD4bs MAb F105 (antibody, V domains shown)
VH: QVQLQESGPGLVKPSETLSLTCTVSGGSISSHYWSWIRQSPGKGLQWIGYIYYSGSTNYSPSLKSRVTISVETAKNQFSLKLTSMTAADTAVYYCARGPVPAVFYGDYRLDPWGQGTLVTVSS
VL: EIVLTQSPGTLSLSAGERATLSCRASQSVSSRYLAWYQQKPGQAPRLLIYGASSRATGIPDRFSGSGSGTDFTLTISRVEPEDFAVYYCQQYDNSVCTFGQGTKLEIK
Take B1: the binding result is “binds”.
